Patent US20200024352A1 (Eli Lilly, published 2020)
Each block holds one binder with its values, some of them ahead of it.

Experiments:
[1] = molecular target: T1, human PD-L1-Fc fusion protein (human, UniProt Q9NZQ7 19-239); assay: blocking ELISA, B7-1-Fc on plate as competitor, biotinylated PD-L1-Fc
T1 construct: also called human PD-L1-Fc (R&D Systems); biotinylated PD-L1-Fc fusion protein; not shown: Fc part

[2] = molecular target: T1, human PD-L1-Fc fusion protein; assay: ELISA, plate-coated human PD-L1-Fc
[3] = molecular target: T2, cell surface PD-L1 on MDA-MB231 cells (human, UniProt Q9NZQ7 19-290); assay: flow cytometry, Antibody B-biotin on MDA-MB231 cells, streptavidin-PE
T2 construct: Endogenous PD-L1 of a PD-L1-positive human breast adenocarcinoma cell line; also called cell surface expressed human PD-L1

[4] = molecular target: T3, cynomolgus monkey PD-L1-Fc fusion protein (cynomolgus monkey, UniProt G7PSE7 19-238); assay: SPR, Biacore, Antibody B immobilized, cyno PD-L1-Fc as analyte, 37 C, 1:1 model
T3 construct: also called Cyno PD-L1; not shown: Fc part

[5] = molecular target: T1, human PD-L1-Fc fusion protein; assay: blocking ELISA, PD-1-Fc on plate as competitor, biotinylated PD-L1-Fc
[6] = molecular target: T1, human PD-L1-Fc fusion protein; assay: SPR, Biacore, Antibody B immobilized, PD-L1-Fc as analyte, 37 C, 1:1 model
[7] = molecular target: T4, human Tim-3-Fc (R&D Systems) (human, UniProt Q8TDQ0 22-130); assay: ELISA, plate-coated human Tim-3-Fc
T4 construct: Bought reagent; Biotinylated in the phosphatidylserine assay, ruthenylated (sulfo-tag) in the galectin-9 assay, plain and plate-coated in the ELISA and the CEACAM1 assay; also called hTIM-3-Fc; hTIM-3-Fc Biotin; not shown: Fc part of the bought fusion protein
T4 sequence: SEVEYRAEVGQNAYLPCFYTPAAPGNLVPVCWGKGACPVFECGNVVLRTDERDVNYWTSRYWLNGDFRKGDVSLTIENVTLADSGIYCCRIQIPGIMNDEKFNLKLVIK

[8] = molecular target: T5, human Tim-3-IgV-Fc single arm antigen (SAG) (human); assay: SPR, Biacore T100, antibody captured on Human Fab Binder, Tim-3 SAG as analyte, 1:1 Langmuir with mass transport
T5 construct: the SAG construct itself is not described further; also called Tim-3 SAG; not shown: Fc part of the antigen arm, any linker to it, and the second antigen-free Fc arm

[9] = molecular target: T6, human Tim-3, full-length, on cells (human, UniProt Q8TDQ0 22-301); assay: flow cytometry, A488-labelled antibody on Tim-3 DO11.10 cells
T6 construct: whole, on cells; also called cell surface Tim-3
T6 sequence (looked up): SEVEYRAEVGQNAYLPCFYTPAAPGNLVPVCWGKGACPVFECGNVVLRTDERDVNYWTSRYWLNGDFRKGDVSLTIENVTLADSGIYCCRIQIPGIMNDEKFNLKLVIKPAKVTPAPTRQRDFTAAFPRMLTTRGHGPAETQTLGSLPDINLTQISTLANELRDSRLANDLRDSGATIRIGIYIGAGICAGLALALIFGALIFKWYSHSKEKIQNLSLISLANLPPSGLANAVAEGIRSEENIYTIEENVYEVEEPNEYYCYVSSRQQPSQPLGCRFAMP

[10] = molecular target: T4, human Tim-3-Fc (R&D Systems); assay: flow cytometry, block of hTIM-3-Fc Biotin binding to phosphatidylserine on camptothecin-treated DO11.10 cells
[11] = molecular target: T4, human Tim-3-Fc (R&D Systems); assay: MSD blocking assay, galectin-9-biotin on streptavidin plate as competitor, ruthenylated Tim-3-Fc
hTim-3-IgV-FLAG = molecular target: T7, hTim-3-IgV-FLAG (human, UniProt Q8TDQ0 22-130, glycosylation at Asn99 (density seen in the crystal structure)); assay: SPR, Biacore T200, Fab captured, hTim-3-IgV-FLAG as analyte, 25 C, 1:1 binding
T7 construct: Purified from 293HEK supernatant on anti-FLAG resin; also called hTim-3-FLAG; not shown: FLAG tag
T7 sequence: T4 sequence

T3 sequence (G7PSE7 entry or part of it): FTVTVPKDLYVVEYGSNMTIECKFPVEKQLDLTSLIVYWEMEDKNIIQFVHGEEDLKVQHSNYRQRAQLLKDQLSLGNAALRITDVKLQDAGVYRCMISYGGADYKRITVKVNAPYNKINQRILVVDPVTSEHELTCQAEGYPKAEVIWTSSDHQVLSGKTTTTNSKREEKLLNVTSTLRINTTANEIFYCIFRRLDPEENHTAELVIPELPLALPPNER
T1 sequence (Q9NZQ7 19-239 limits assumed): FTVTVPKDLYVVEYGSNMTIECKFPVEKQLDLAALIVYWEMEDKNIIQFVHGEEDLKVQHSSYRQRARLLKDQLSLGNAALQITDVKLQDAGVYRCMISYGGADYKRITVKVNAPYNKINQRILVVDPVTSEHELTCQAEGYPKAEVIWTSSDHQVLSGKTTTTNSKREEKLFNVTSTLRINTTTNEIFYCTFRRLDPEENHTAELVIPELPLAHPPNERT
T2 sequence (Q9NZQ7 19-290 limits assumed): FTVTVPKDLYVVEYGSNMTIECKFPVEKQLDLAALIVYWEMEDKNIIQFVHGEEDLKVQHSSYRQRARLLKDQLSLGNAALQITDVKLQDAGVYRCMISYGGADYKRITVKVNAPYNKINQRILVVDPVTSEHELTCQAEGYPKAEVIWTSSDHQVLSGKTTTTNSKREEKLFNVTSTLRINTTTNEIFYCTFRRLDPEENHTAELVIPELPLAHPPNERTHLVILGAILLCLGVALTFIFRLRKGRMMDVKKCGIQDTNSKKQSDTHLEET

IC50 [1]: 2.4 nM
EC50 [2]: 0.11 nM
EC50 [3]: 0.14 nM
Kd [4]: 0.122 nM
koff [4]: 0.000184 s⁻¹
kon [4]: 1.51e+06 M⁻¹ s⁻¹
IC50 [5]: 0.95 nM
Kd [6]: 0.082 nM
koff [6]: 0.000114 s⁻¹
kon [6]: 1.4e+06 M⁻¹ s⁻¹
B1: Antibody B (Anti-PD-L1 Antibody) (antibody, human IgG1, lambda, V domains shown)
VH: QVQLVQSGAEVKKPGSSVKVSCKASGGTFSSYAISWVRQAPGQGLEWMGGIIPIFGTANYAQKFQGRVTITADKSTSTAYMELSSLRSEDTAVYYCARSPDYSPYYYYGMDVWGQGTTVTVSS
VL: QSVLTQPPSASGTPGQRVTISCSGSSSNIGSNTVNWYQQLPGTAPKLLIYGNSNRPSGVPDRFSGSKSGTSASLAISGLQSEDEADYYCQSYDSSLSGSVFGGGIKLTVLG
notes: Full IgG; also called Lilly PD-L1 antibody Antibody B; Antibody B-biotin

EC50 [7]: 0.0207 nM
Kd [8]: 0.398 nM
koff [8]: 0.000927 s⁻¹
kon [8]: 2.33e+06 M⁻¹ s⁻¹
EC50 [9]: 0.09 nM
IC50 [10]: 0.32 nM
IC50 [11]: 5.6 nM
B2: Antibody A (anti-Tim-3 Antibody) (antibody, human IgG1, kappa, V domains shown)
VH: EVQLLESGGGLVQPGGSLRLSCAASGFTFSSYYMSWVRQAPGKGLEWVSAISGSGGSTYYADSVKGRFTISRDNSKNTLYLQMNSLRAEDTAVYYCARYARTAFDLWGQGTLVTVSS
VL: DIVMTQSPSSLSASVGDGVTITCQASQDIYNYLNWYQQKPGKAPKLLIYAASSLQSGVPSRFSGSGSGTDFTLTISSLQPEDFATYYCQQANSFPPTFGQGTKLEIKR
notes: Full IgG; also called anti-human Tim-3 antibody

Kd (hTim-3-IgV-FLAG): 7.92 nM
koff (hTim-3-IgV-FLAG): 0.00286 s⁻¹
kon (hTim-3-IgV-FLAG): 362000 M⁻¹ s⁻¹
B3: Antibody A-Fab (Fab, V domains shown)
VH: B2 VH
VL: B2 VL
notes: Made by clipping Antibody A with immobilized papain; also called Fab for Antibody A
